The target of one data set is T1, Human RAD51 (human, UniProt Q06609 1-339).
T1 sequence (looked up): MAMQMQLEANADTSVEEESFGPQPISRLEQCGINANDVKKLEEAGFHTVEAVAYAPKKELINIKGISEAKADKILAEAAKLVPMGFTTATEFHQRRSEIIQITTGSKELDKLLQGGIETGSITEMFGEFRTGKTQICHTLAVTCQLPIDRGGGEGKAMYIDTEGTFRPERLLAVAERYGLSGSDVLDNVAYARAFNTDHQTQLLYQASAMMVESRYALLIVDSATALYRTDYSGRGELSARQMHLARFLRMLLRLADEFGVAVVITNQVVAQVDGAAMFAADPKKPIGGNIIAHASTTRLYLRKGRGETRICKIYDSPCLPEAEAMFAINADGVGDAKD
Nature of the data set: pull-down.

In another data set the target is RAD51 (human, UniProt Q06609 1-339). Description: EMSA. A general note: In EMSA bound probe runs differently from free probe, usually more slowly.

B1: Human GEMIN2 (natural protein, UniProt O14893 1-280, looked up)
chain: MRRAELAGLKTMAWVPAESAVEELMPRLLPVEPCDLTEGFDPSVPPRTPQEYLRRVQIEAAQCPDVVVAQIDPKKLKRKQSVNISLSGCQPAPEGYSPTLQWQQQQVAQFSTVRQNVNKHRSHWKSQQLDSNVTMPKSEDEEGWKKFCLGEKLCADGAVGPATNESPGIDYVQIGFPPLLSIVSRMNQATVTSVLEYLSNWFGERDFTPELGRWLYALLACLEKPLLPEAHSLIRQLARRCSEVRLLVDSKDDERVPALNLLICLVSRYFDQRDLADEPS
B1: the binding result in the data set with Human RAD51 is “binds”.

B2: 49-mer dsDNA (dsDNA)
DNA 1: GTCCCAGGCCATTACAGATCAATCCTGAGCATGTTTACCAAGCGCATTG
DNA 2: CAATGCGCTTGGTAAACATGCTCAGGATTGATCTGTAATGGCCTGGGAC
Consider B2, for which the binding result with RAD51 was “binds”.

The values above are taken from publication PMC2926616 (Nucleic Acids Research, 2010).
